The record followed here is patent CN115536747A (YIKESITE BEIJING PHARMACEUTICAL TECH DEVELOPMENT CO LTD, dated 2022).

Experiment [1] has as its target T1, Human TROP-2 (人TROP2蛋白, SPR antigen) (human, UniProt P09758 27-274, limits assumed).
T1 construct: The construct used in SPR is not described
T1 sequence (looked up): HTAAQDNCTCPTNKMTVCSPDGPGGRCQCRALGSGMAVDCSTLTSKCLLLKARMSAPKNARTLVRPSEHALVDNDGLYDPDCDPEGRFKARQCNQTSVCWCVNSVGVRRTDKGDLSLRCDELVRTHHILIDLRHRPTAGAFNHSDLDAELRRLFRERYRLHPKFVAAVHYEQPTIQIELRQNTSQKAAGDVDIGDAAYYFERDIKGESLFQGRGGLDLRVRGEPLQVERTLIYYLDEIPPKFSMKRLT
Description: SPR, IgG.

Experiment [2] deals with T2, Rhesus TROP-2 (猴TROP2蛋白, SPR antigen) (Rhesus (the 2nd table); 食蟹猴 (text paragraph 139), UniProt A0A5F8AGB8 27-274).
T2 construct: also called 食蟹猴TROP2
T2 sequence: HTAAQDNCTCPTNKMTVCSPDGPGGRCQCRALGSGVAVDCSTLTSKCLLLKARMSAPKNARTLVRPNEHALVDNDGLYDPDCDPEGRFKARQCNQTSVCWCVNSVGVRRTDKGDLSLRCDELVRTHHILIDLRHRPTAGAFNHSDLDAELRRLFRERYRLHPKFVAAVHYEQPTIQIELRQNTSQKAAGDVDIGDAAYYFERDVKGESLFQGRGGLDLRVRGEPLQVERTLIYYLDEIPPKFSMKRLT
The experiment is described as follows: SPR, IgG.

In experiment [3] the target is T1, Human TROP-2 (人TROP2蛋白, SPR antigen). Description: ELISA (内在亲和力).
For experiment [4] the target is unchanged. Description: SPR, IgG; reference 1F7.
In experiment [5] the target is T2, Rhesus TROP-2 (猴TROP2蛋白, SPR antigen). The experiment is described as follows: SPR, IgG; reference 1F7.
For experiment [6], the target named is T3, 人TROP2 on cells (表达TROP2的CHO细胞系; MCF, MDA-MB-231, MDA-MB-468, HCC1395 breast cancer cells) (human, UniProt P09758 27-323).
T3 construct: whole, on cells; also called 细胞膜表面的TROP2抗原; 人细胞表面抗原TROP2
T3 sequence (looked up): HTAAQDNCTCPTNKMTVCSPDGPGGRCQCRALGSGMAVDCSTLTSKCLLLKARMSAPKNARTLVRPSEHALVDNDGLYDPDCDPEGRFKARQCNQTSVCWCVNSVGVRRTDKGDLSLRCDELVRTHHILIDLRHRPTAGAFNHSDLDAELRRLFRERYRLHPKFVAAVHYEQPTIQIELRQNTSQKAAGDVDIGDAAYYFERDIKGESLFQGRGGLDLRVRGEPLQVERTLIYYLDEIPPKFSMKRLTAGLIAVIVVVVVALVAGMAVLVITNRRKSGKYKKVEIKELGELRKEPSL
The experiment is described as follows: flow cytometry on MDA-MB-231 cells, PE anti-human IgG Fc.

For experiment [7], the target named is T3, 人TROP2 on cells (表达TROP2的CHO细胞系; MCF, …). The experiment is described as follows: flow cytometry on HCC1395 cells, PE anti-human IgG Fc.
The target is the same in experiment [8]. Description: flow cytometry on MCF cells, PE anti-human IgG Fc.
For a further experiment, the target named is T4, 人T细胞的CD3 (CD3+ T细胞) (human, UniProt P07766 23-207; P04234 22-171; P09693 23-182; P20963 22-164).
T4 construct: whole, on cells; also called T细胞表面抗原CD3
T4 sequence (P07766 23-207, chain 1 of 4): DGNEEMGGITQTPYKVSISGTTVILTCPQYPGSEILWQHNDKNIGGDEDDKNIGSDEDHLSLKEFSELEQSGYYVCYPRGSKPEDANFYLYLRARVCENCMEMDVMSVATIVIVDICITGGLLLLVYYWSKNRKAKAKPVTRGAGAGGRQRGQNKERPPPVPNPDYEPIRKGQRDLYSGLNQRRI
T4 sequence (P04234 22-171, chain 2 of 4): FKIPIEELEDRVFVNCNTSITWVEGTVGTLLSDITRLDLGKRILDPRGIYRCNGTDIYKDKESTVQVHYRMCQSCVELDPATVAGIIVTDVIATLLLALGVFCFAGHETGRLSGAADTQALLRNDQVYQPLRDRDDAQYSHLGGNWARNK
T4 sequence (P09693 23-182, chain 3 of 4): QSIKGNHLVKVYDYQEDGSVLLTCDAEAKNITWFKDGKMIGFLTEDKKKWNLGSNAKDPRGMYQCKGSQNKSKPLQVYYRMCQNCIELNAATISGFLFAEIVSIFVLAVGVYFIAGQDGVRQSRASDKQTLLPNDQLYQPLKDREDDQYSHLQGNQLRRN
T4 sequence (P20963 22-164, chain 4 of 4): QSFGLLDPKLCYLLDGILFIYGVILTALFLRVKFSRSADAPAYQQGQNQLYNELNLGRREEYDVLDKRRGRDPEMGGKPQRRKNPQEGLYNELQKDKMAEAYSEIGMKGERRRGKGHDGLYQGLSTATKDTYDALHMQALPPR
Description: flow cytometry on CD3+ T cells, PE anti-human IgG Fc.

The target of experiment [9] is T3, 人TROP2 on cells (表达TROP2的CHO细胞系; MCF, …). The experiment is described as follows: flow cytometry on MDA-MB-468 cells, PE anti-human IgG Fc.
The target in experiment [10] is T5, TROP2抗原 (TROP2-Fc融合蛋白, Acrobiosystems, 目录号TR2-H5253) (human, UniProt P09758 27-274).
T5 construct: not shown: human antibody Fc
T5 sequence (looked up): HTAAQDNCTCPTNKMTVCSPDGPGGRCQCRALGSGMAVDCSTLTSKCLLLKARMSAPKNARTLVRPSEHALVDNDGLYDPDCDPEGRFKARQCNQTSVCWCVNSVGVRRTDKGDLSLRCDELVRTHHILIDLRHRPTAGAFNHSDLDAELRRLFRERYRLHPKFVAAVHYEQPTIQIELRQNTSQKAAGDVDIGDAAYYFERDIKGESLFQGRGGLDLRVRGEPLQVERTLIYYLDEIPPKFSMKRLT
Description: monoclonal phage ELISA, TROP2 antigen coated at 1 μg/ml, positive = more than 3x negative control.

B1: 1F7亲本抗体 (IgG形式) (antibody, V domains shown)
VH: QVQLVQSGAEVKKPGASVKVSCKASGYTFTSYGINWVRQATGRGLEWMGWMNPNSGNTGYAQKFQGRVTITADESTSTAYMELSSLRSEDTAVYYCARPNTGGDGAFDIWGQGTMVTVSS
VL: DIQLTQSPSSVSASVGDRVTITCRASQGISSWLAWYRQKPGKAPKLLIYAASSLQSGVPSRFSGSGSGTDFTLTISSLQPEDFATYYCQQANSFPITFGQGTRLEIKR
For the molecule B1, the Kd in experiment [1] was 7.57 nM; in [2], 40.7 nM; in experiment [3], around 7.5 nM. In addition, the figures for the koff in experiment [1] and in experiment [2] were 0.000892 s⁻¹ and 0.000942 s⁻¹, respectively. Further, the kon in experiment [1] worked out at 118000 M⁻¹ s⁻¹; in experiment [2] it was 23100 M⁻¹ s⁻¹.

B2: 突变体F7A (IgG形式) (antibody, V domains shown)
VH: QVQLVQSGAEVKKPGASVKVSCKASGYTFTNYGINWVRQATGRGLEWMGWMNPRSGNTGYAQKFQGRVTITADESTSTAYMELSSLRSEDTAVYYCARPNTGGDGAFDIWGQGTMVTVSS
VL: DIQLTQSPSSVSASVGDRVTITCRASQGISSWLAWYRQKPGKAPKLLIYRARSLQSGVPSRFSGSGSGTDFTLTISSLQPEDFATYYCQQANSFPVTFGQGTRLEIKR
In the case of B2, in experiment [1], binding was put at a Kd of 4.35 nM, the koff was 0.000834 s⁻¹ and the kon turned out to be 192000 M⁻¹ s⁻¹. In experiment [2], this molecule had a Kd of 12.8 nM, a koff of 0.00165 s⁻¹ and a kon of 128000 M⁻¹ s⁻¹. Besides, the “fold improvement of binding against 1F7” value in experiment [4] is 1.74 倍. Further, the “fold improvement of affinity against 1F7” value in experiment [5] was 3.18 倍.

B3: 双特异性抗体F7AK3 (TROP2×CD3, cFIST形式) (bispecific antibody, human IgG4 S228P, kappa)
heavy: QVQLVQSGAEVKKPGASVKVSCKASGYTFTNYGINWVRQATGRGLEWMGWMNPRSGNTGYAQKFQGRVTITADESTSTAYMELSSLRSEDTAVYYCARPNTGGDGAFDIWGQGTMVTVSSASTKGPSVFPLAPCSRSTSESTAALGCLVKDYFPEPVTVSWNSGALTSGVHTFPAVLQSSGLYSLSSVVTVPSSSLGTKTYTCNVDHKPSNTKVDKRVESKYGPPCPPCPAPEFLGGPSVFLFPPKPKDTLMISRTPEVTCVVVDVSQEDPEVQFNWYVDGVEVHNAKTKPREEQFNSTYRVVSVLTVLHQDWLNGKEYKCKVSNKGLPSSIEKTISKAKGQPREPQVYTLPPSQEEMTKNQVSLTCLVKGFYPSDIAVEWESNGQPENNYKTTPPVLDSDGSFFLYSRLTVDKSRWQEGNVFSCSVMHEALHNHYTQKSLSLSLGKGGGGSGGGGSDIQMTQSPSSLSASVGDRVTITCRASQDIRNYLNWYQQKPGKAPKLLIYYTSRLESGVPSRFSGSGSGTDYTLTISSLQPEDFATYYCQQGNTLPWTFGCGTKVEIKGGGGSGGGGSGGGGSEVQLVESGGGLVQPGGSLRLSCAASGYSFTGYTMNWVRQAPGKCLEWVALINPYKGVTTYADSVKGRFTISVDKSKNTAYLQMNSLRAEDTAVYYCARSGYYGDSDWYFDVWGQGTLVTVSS
light: DIQLTQSPSSVSASVGDRVTITCRASQGISSWLAWYRQKPGKAPKLLIYRARSLQSGVPSRFSGSGSGTDFTLTISSLQPEDFATYYCQQANSFPVTFGQGTRLEIKRTVAAPSVFIFPPSDEQLKSGTASVVCLLNNFYPREAKVQWKVDNALQSGNSQESVTEQDSKDSTYSLSSTLTLSKADYEKHKVYACEVTHQGLSSPVTKSFNRGEC
notes: also called F7AK3双抗
As for B3, the EC50 is 0.0891 µg/mL in experiment [6]; 0.0532 µg/mL in experiment [7]; 0.205 µg/mL in experiment [8]; 0.568 µg/mL with 人T细胞的CD3 (CD3+ T细胞); 0.0668 µg/mL in experiment [9].

B4: 1F7单链抗体 (scFv shown on M13 phage) (scFv)
scFv: QVQLVQSGAEVKKPGASVKVSCKASGYTFTSYGINWVRQATGRGLEWMGWMNPNSGNTGYAQKFQGRVTITADESTSTAYMELSSLRSEDTAVYYCARPNTGGDGAFDIWGQGTMVTVSSGGSSRSSSSGGGGSGGGGDIQLTQSPSSVSASVGDRVTITCRASQGISSWLAWYRQKPGKAPKLLIYAASSLQSGVPSRFSGSGSGTDFTLTISSLQPEDFATYYCQQANSFPITFGQGTRLEIK
notes: The phage coat protein fusion is not described; also called hit
Turning to B4, in [10], the binding result is “binds”.
